Source: US20180021429A1 (PHARMA FOODS INTERNATIONAL, published 2018)

Assays:
[1] = biological target: T1, His-tagged human FSTL1 (amino acid sequence of human FSTL1 used in Examples, SEQ ID NO: 70) (human, UniProt Q12841 21-308); assay: ELISA, human FSTL1 coated (FIG. 3A)
T1 construct: Parent of the deletion mutants
T1 sequence: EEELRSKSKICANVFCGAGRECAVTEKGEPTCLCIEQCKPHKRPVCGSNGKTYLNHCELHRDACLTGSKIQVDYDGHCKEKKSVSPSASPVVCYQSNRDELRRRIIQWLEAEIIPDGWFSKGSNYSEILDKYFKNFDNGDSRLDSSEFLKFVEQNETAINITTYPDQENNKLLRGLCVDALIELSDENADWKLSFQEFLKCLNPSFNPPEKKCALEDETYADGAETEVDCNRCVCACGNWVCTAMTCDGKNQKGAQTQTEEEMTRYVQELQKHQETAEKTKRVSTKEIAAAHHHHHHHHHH

[2] = biological target: T2, His-tagged mouse FSTL1 (amino acid sequence of mouse FSTL1 used in Examples, SEQ ID NO: 72) (mouse, UniProt Q62356 19-306); assay: ELISA, mouse FSTL1 coated (FIG. 3B)
T2 sequence: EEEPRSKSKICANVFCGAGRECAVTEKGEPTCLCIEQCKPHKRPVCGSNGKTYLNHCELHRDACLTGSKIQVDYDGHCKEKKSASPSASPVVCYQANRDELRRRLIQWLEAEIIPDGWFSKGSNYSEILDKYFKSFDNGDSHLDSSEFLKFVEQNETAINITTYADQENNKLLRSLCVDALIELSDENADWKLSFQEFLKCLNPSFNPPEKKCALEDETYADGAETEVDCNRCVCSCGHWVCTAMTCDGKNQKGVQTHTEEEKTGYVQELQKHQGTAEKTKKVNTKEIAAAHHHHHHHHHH

binding result [1]: binds | binding result [2]: binds
B1: anti-FSTL1 antibody clone #22 (chicken-mouse chimeric antibody) (antibody, mouse IgG1, kappa, V domains shown)
VH: AVTLDESGGGLQTPGGALSLVCKASGFTFSSNGMAWVRQAPGKGLELVARINSSGSYTNYGAAVKGRATISRDNGQSTVRLQLNNLRAEDTGTYYCAKGASGYGAYPGNIDAWGHGTEVIVSS
VL: ASTQPSSVSANPGETVKITCSGGSGSYGWFQQKSPGSAPVTVIYWDDRRPSDIPSRFSGSKSGSIHTLTITGVQADDEAVYLCGNAVRSGTGYVGVFGAGTTLTVLG
